This passage reports response (response units) and screen value results from paper PMC6793842.

B1: unnamed (parent)
chain 1: FENAIKKTKNQENNLTLLPIKSTEEEKDDIKNGKDIKKEIDNDKENIKTNNAKDHSTYIKSYLNTNVNDGLKYLFIPSHNSFIKKYSVFNQINDGMLLNEKNDVKNNEDYKNVDYKNVNFLQYDFKELSNYNIANSIDILQEKEGHLDFVIIPHYTFLDYYKHLSYNSIYHKYSTHGKYIAVDAFIKKINERYDQVKSKCNDIKNDLIATIKKLEHPYDINNKNDDSYRYDISEEIDDKSEETDDETEEVEDSIQDTDSNHTPSNKKKNDLMNRTFKKMMDEYNTKKKKLIKCIKNHENDFNKICMDMKNYGTNLFEQLSCYNNNFCNTNGIRYHYDEYIHKLILSVKSKNLNKDLSDMTNILQQSELLLTNLNKKMGSYIYIDTIKFIHKEMKHIFNRIEYHTKIINDKTKIIQDKIKLNIWRTFQKDELLKRILDMSNEYSLFITSDHLRQMLYNTFYSKEKHLNNIFHHLIYVLQMKFNDVPIKMEYFQTYKKNKPLTQ
chain 2: EPGTVFTTVEDLGSKILLTCSLNDSATEVTGHRWLKGGVVLKEDALPGQKTEFKVDSDDQWGEYSCVFLPEPMGTANIQLHGPPRVKAVKSSEHINEGETAMLVCKSESVPPVTDWAWYKITDSEDKALMNGSESRFFVSSSQGRSELHIENLNMEADPGQYRCNGTSSKGSDQAIITLRVRSHLAAL

Variants of B1 are the subject of the assay. The assay is described as follows: SPR. As to conditions: read off a plot; for response (response units): with partner chain of the complex shown, plateau of the highest curve of four 2-fold serial dilutions (600 to 75 nM); for screen value: with partner chain of the complex shown;.

For the variant chain 1 R192T, the response (response units) was found to be 180 and the screen value was 2.3 s.

In the case of chain 1 Y179C, the response (response units) amounted to 130 and the screen value is 1.5 s.

Consider chain 1 Q195K, for which the response (response units) was 360 and the screen value was 2.4 s.
